This assay addresses HLA-DRα (human). As to conditions: scale: % of surface expression with wild type Ii.

Ii M91G mutant (natural protein) registered a cell surface expression of DRA.DPB1*0401 co-expressed with Ii M91G (flow cytometry, mAb 2.06) of 60.

Values taken from publication PMC3887193.
